Assay results reported in patent US20170368150A1, “METHODS OF TREATING PULMONARY SARCOIDOSIS” (GOTHAM BIOPHARMACEUTICALS, INC., priority 2014, published 2017).

Columns and labels:
bronchiectasis patients = conditions: large clinical trial; cited from earlier work
[1] = tested on: patient with chronic pulmonary sarcoidosis; assay: n=1 long-term clinical treatment of a chronic pulmonary sarcoidosis patient with PULMOZYME; assay type: in vivo
From the text: At times, the patient was bedridden, dyspneic, and could not climb stairs or walk more than 10 feet. Steroids had been prescribed by pulmonary specialists; however the side effects of steroid therapy (diabetes, weight gain, memory loss, mental confusion, crippling joint pain) were intolerable. The patient's pulmonary sarcoidosis was deemed ultimately refractory to steroid therapy, which was discontinued, leaving essentially no therapeutic options for this patient.
PULMOZYME® was prescribed to the patient by a licensed medical practitioner to initiate treatment.
The extended clinical timeline described above allowed for a distinction between remission and stabilization of the disease to be made. […] This was done on an annual basis for the patient described above for the typical “survival window” (8-14 years for patients with progressive, chronic disease).
The clinical timeline for treatment of the patient described above with PULMOZYME® is represented diagrammatically in FIG. 3 during pretreatment and for the entire treatment interval.

[2] = more than 10 years of treatment

B1: dornase alfa (protein, listed as Homo sapiens)
chain: LKIAAFNIQTFGETKMSNATLVSYIVQILSRYDIALVQEVRDSHLTAVGKLLDNLNQDAPDTYHYVVSEPLGRNSYKERYLFVYRPDQVSAVDSYYYDDGCEPCGNDTFNREPAIVRFFSRFTEVREFAIVPLHAAPGDAVAEIDALYDVYLDVQEKWGLEDVMLMGDFNAGCSYVRPSQWSSIRLWTSPTFQWLIPDSADTTATPTHCAYDRIVVAGMLLRGAVVPDSALPFNFQAAYGLSDQLAQAISDHYPVEVMLK
- benefit of treatment in bronchiectasis (bronchiectasis patients): failed to demonstrate any benefit
- safety of treatment in bronchiectasis (bronchiectasis patients): potentially harmful
- pulmonary disease symptoms (dyspnea, inspissated secretions) on discontinuation of therapy ([1]; annual 2-week discontinuation, resolved upon resumption (2.5 mg qd 4x weekly)): worsened
- arterial O2 saturation (finger pulse oximetry) ([1]; at present, on room air): 98%
- Arterial oxygenation via pulse oximetry, SaO2 ([1]; currently measured on room air, low of 70% in pre-treatment interval): 99%
- Chest physical therapy with postural drainage ([1]; during PULMOZYME therapy): none required
- General quality of life ([1]; during PULMOZYME therapy): vastly improved
- Rib fractures and abdominal hernias ([1]; during PULMOZYME therapy): none
- Granuloma formation/expectoration ([1]; during treatment): occasional
- sarcoid skin involvement ([1]; during treatment): unchanged
- Remission of disease ([1]; judged by annual 14-day discontinuation): not evident
- Emergency room visits and hospitalizations relating to pulmonary sarcoidosis [1, 2]: none
- Pulmonary exacerbations (pneumonia) [1, 2]: not been a single pulmonary exacerbation and none
- routine chest x-rays during treatment ([1]; scarring not progressed to more severe disease): improvement
- Blood chemistry, liver and kidney function during treatment ([1]; single patient): normal
- Exercise tolerance during treatment ([1]; single patient): unlimited
- Coughing, wheezing, dyspnea ([1]; single patient, continued therapy 3-4 days/week): none
- Adverse events / side effects relating to PULMOZYME ([1]; single patient, long-term treatment (more than 10 years; over 12 years)): complete absence of side effects and without side effects or incident and none
